Source: patent US11001846B2, “Aptamers, nucleic acid molecules, polynucleotides, synthetic antibodies compositions for detecting PRRS viruses and treating PRRS virus infection” (AEROVIRUS TECHNOLOGIES INC., priority 2015, dated 2021)
“Also recorded” adds a separate entry of the source.

Columns and labels:
[1] = tested on: LHVA-93-3 PRRS virus; assay: In-vivo lung virus titer, LHVA-93-3, comparison with control oligonucleotide and Tilmicosin (Example 4); design: species or system swine; conditions: for change in lung virus titer: LHVA-93-3, FIG. 13b
Description: Swine were inoculated intranasally with sub-lethal infectious fluid containing 40TCID50/ml PRRS virus (LHVA-93-3) with or without 2.5 nmole A505 aptamer for different time intervals. Pig body weight was monitored for 2 weeks. Viral titer in the lungs was determined by the CPE titration method (OIE Terrestrial Manual—May 2015, Chapter 2.8.7—Porcine Reproductive and Respiratory Syndrome, section 1.1.3). Other pigs were sacrificed 6 days following viral inoculation and lungs were removed and homogenized in PBS 0.1% BSA (10% w/v). Following homogenization, samples were centrifuged to remove debris and stored at −80° C.
The cells/viruses were incubated for 2-5 days and observe daily for a CPE. At day 2, seed macrophages in new microtitre plates. Fifty (50) μl of the supernatants were transferred from the plates of the first passage to the corresponding wells of the freshly seeded plates (second passage). The wells were incubated for 2-5 days and observed daily for a CPE. The results of the CPE assays were presented as log TCID50.
Tilmicosin (Pulmotil®) was purchased from Eli Lilly (Elanco®), Canada.
Were implemented as described hereinabove. A dose of 15 ug/Kg of A505 was used.
The ability of the A505 aptamer to inhibit PRRSV infection was also compared to that of one of the currently available “anti-PRRSV” drugs, the antibiotic Tilmicosin. To this end, both A505 and Tilmicosin were administered once, together with the virus, using the intra-nasal route. As is shown in Table 2 below, a dose of 60 mg/pig of Tilmicosin (1 mg/kg body weight) reduced virus titer by 0.42 log TCID50, representing a 2.6-fold reduction in virus burden. This is in comparison to a reduction by 1.21 log TCID50 affected by A505 in this particular experiment (over 10 fold reduction in virus burden).

[2] = tested on: intact PRRS virus (LHVA-93-3); assay: ELISA binding to intact PRRS virus; design: species or system PRRSV; conditions: vs control ssDNA or between aptamers, FIG. 8a
[3] = tested on: type 2 PRRSV; conditions: after MTT screening of 10 candidates
Description: (§3) Using various tetrazolium (MTT) colorimetric assay procedures^[xxxvi], these aptamers have been “screened” to identify the ones having the highest and fastest binding capabilities for detection and therapeutics purposes for both types of PRRSV. It should be pointed out that the aptamer having the quickest binding efficiency but not necessarily the highest binding strength is the most suitable one for the biosensor.

[4] = tested on: LHVA-3 PRRS virus; assay: MTT assay, in vitro protection of PAMs or MARC-145 cells from LHVA-3 infection; type: cell-based, PRRSV; conditions: 500 pmole; LHVA-3 and NVSL; FIG. 9b
Description: PAMs or MARC-145 cells were plated in 96 well plates (7×10^4/well) one day prior to the assay. […] Following infection, cells were incubated in growth medium at 37° C. for 72 hours. MTT assay was performed by adding 4 mg/ml MTT (3-[4,5-Dimethylthiazol-2-yl]-2,5-diphenyltetrazolium bromide dissolved in PBS to the cell cultures and incubation at 37° C. for 3 hours. Plates were then centrifuged at 800×g for 10 min. Supernatants were aspirated and the formazan dye was dissolved in 150 μl/well of isopropyl alcohol, and O.D. values were determined with an ELISA reader at 570 nm.
In Vitro Viral Protection Prior to Viral Infection PAMs or MARC-145 cells were plated on 96 well plates (7×10^4/well) 24 hours prior to the experiment. Each well was washed twice with DPBS prior to treating the cells with various amounts of A505 (12.5 to 2000 pmole) at 37° C. for the indicated time points. […] Following incubation, cells were transferred to growth medium and incubated at 37° C. for 72 hours. Thereafter an MTT assay was implemented as described.
In Vitro Viral Protection Following Viral Infection—PAMs or MARC-145 cells were plated on 96 well plates (7×10^4/well) 24 hours prior to viral infection. Viral infection was effected as described above. Infected cells were gently washed with DPBS for 3 times. Cells were then treated with various amounts of A505 (12.5 to 2000 pmole) for 1 hour at 37° C. Following incubation, cells were transferred to growth medium and incubated at 37° C. for 72 hours. Thereafter an MTT assay was implemented as described.

[5] = tested on: M-S-S-GP5 peptidic complex; assay: ELISA reverse screening: binding to M-S-S-GP5 peptidic complex, type 2; conditions: type 2 PRRSV complex
Description: (§1) ssDNA aptamers were denatured at 80° C. for 10 min and then cooled on ice for 10 min. Aptamers (30 nmole) were mixed with 25 μg of M-S-S-GP5 peptidic complex (further described in Example 6 below) in 500 μl selection buffer (50 mM Tris-HCl; pH 7.4, 5 mM KCl, 100 mM NaCl, 1 mM MgCl2 tRNA, 0.2% BSA) at 37° C. for 30 min. Aptamer-peptide complex was purified by adding the 25 μl Ni-NTA superflow and amplified by PCR using primers directed to the common T3 sequences in the aptamer library, and 3′-primer (i.e. -[…]-3′). SELEX was repeated 3 times, following which amplified nucleotides were transformed into E. coli. PCR conditions for SELEX included 5 min 95° C./1 min 95° C./1 min 55° C./1 min 72° C./10 min 72° C. and 100 pmole of each primer.
(§2) Selected ssDNA molecules from each individual clone were biotinylated using the B-T3 which is same sequence with 5′ primer (T3 primer), and Klenow fragment (2 unit/ml). To prepare single stranded biotin conjugated CoocSeq5 aptamer for the reverse screening, T3 Primer was Biotin labelled. A 96-well flat bottom ELISA plate was prepared by coating each well with 100 μl of streptavidin (100 μg/ml) diluted in 0.1 M NaHCO3 following by a 37° C. overnight incubation. Following several washings with PBS, wells were blocked with 200 μl of PBS containing 1% BSA for 2 hours at room temperature and subsequent washing three times with PBS-T (10 mM PBS containing 0.05% (v/v) Tween-20). […]
High binding capacity ELISA plates (Immunoplate, Nunc) were coated with 100 μl allantoic fluid containing 500 TCID50 of various PRRS virus strains diluted in phosphate buffered saline (PBS) by incubating at 4° C. overnight. […] Following this incubation period, plates were washed five times in PBS-T and bound antibodies were detected using horseradish peroxidase labelled goat anti-mouse IgG conjugates (HRP). […] Reaction was terminated with 50 μl of 2M H2SO4, plates were read with a multichannel spectrophotometer at 570 nm.

[6] = tested on: M-S-S-GP5 peptidic complex; assay: ELISA reverse screening: binding to M-S-S-GP5 peptidic complex, type 1; design: species or system type 1 PRRSV (Lelystad); conditions: type 1 PRRSV complex
Description: as §1
as §2, with “Tween-20). Thereafter, 100 μl of 2.5 pmole/100 μl biotinylated-ssDNA were added to the wells and incubated at 37° C. for 2 hours followed by washing four times with PBS-T. T3 primer was used as negative control. Following washing, 100 μl of fluid containing 2 μg histidine labelled M-S-S-GP5 peptidic complex were added to the indicated wells and incubated at 37° C. for 2 hours. The wells were then washed for 4 times with PBS-T. The reverse screening assay was completed by ELISA.” for “Tween-20).”

[7] = tested on: type 1 (Lelystad) PRRSV; conditions: after MTT screening of 10 candidates
Description: as §3

How did the “Reduction Factor” value ([1]; Table 2, administered once with the virus, intra-nasal) turn out when `CC[C@H]1OC(=O)C[C@@H](O)[C@H](C)[C@@H](O[C@@H]2O[C@H](C)[C@@H](O)[C@H](N(C)C)[C@H]2O)[C@@H](CCN2C[C@H](C)C[C@H](C)C2)C[C@@H](C)C(=O)/C=C/C(C)=C/[C@@H]1CO[C@@H]1O[C@H](C)[C@@H](O)[C@@H](OC)[C@H]1OC` [Tilmicosin, reference compound] was run?
Its value is 2.6.

And the “Δ (log TCID50), reduction of virus titer” value ([1]; administered once together with the virus, intra-nasal, Tilmicosin 60 mg/pig (1 mg/kg), A505 15 ug/Kg)?
Its value is 0.42 log TCID50.

What about the “reduction in virus burden” value ([1]; administered once with the virus, intra-nasal) of the same molecule?
Its value is 2.6 fold.

B1: A508: ssDNA aptamer binding type 2 PRRSV M-S-S-GP5 complex (nucleic acid)
DNA: GGGCGACCCTGAAGAGACTGGTGAGTTAATGTTTTTTCTTAGCCTTGTATCGAAACGGTGAAAGCCGTAGGTTGCCC
modifications: DNA, backbone and methylation of C not given here
B1 was tested. Which “binding level to the intact virus” value [2] did it give?
Its value is “significant binding”.

What about the “binding capabilities from biosensing and therapeutic perspectives” value (shortened to “binding capabilities”) [3] of the same molecule?
Its value is “highest binding capabilities”.

What about the “change in lung virus titer” value [1] of the same molecule?
Its value is “less effective than A505 was still capable of reducing the lung virus titer”.

What about the “in-vitro infectivity of the viruses / cell mortality” value [4] of the same molecule?
The value was “capable of reducing the in-vitro infectivity of the viruses”.

And the “binding to the M-S-S-GP5 complex/heterodimer” value [5]?
The value was “highly significant differences from the control ssDNA; also recorded: binding capacity to the M-S-S-GP5 complex; also recorded: found to bind the M-S-S-GP5 heterodimer”.

B2: PEU-499: ssDNA aptamer binding type 1 (Lelystad) PRRSV M-S-S-GP5 complex (nucleic acid)
DNA: GGGCGACCCTGAAGAGTACACACGGGACACACACACACTCACTAGACGAAACGGTGAAAGCCGTAGGTTGCCC
modifications: DNA, backbone and methylation of C not given here
What does the source list for B2?
binding to the M-S-S-GP5 complex/heterodimer [6]: binding capacity to the M-S-S-GP5 complex; also recorded: found to bind the M-S-S-GP5 heterodimer; binding capabilities from biosensing and therapeutic perspectives [7]: good binding capabilities

B3: PEU-962: ssDNA aptamer binding type 1 (Lelystad) PRRSV M-S-S-GP5 complex (nucleic acid)
DNA: GGGCGACCCTGAAGAGGATAGACAATAGCACACCACGCCCCTGCCACGAAACGGTGAAAGCCGTAGGTTGCCC
modifications: DNA, backbone and methylation of C not given here
Which “binding to the M-S-S-GP5 complex/heterodimer” value [6] does the source give for B3 here?
Its value is “binding capacity to the M-S-S-GP5 complex; also recorded: found to bind the M-S-S-GP5 heterodimer”.

And the “binding capabilities” value [7]?
The value was “good binding capabilities”.

B4: PEU-424: ssDNA aptamer binding type 1 (Lelystad) PRRSV M-S-S-GP5 complex (nucleic acid)
DNA: GGGCGACCCTGAAGAGGATGTTGATAGAGCGCCGACCACACACGCACGAAACGGTGAAAGCCGTAGGTTGCCC
modifications: DNA, backbone and methylation of C not given here
Which results are given for B4?
binding to the M-S-S-GP5 complex/heterodimer [6]: binding capacity to the M-S-S-GP5 complex; also recorded: found to bind the M-S-S-GP5 heterodimer; binding capabilities from biosensing and therapeutic perspectives [7]: good binding capabilities

B5: A501: ssDNA candidate aptamer for type 2 PRRSV M-S-S-GP5 complex; used as control irrelevant nucleotide in Example 4 (nucleic acid)
DNA: GGGCGACCCTGAAGAGAAAGGTGAGTTTATTGCGGGGGTTATTTATTGCTTCGAAACGGTGAAAGCCGTAGGTTGCCC
modifications: DNA, backbone and methylation of C not given here
Which “change in lung virus titer” value [1] does the source give for B5 here?
The value was “insignificant change in the viral titer”.

B6: PEU-852: ssDNA aptamer binding type 1 (Lelystad) PRRSV M-S-S-GP5 complex (nucleic acid)
DNA: GGGCGACCCTGAAGAGGACACTGCACGTACACAACGAGGATGAACACGAAACGGTGAAAGCCGTAGGTTGCCC
modifications: DNA, backbone and methylation of C not given here
For B6, which “binding to the M-S-S-GP5 complex/heterodimer” value [6] is on record?
Its value is “binding capacity to the M-S-S-GP5 complex; also recorded: found to bind the M-S-S-GP5 heterodimer”.

And the “binding capabilities” value [7]?
Its value is “good binding capabilities”.

B7: PEU-842: ssDNA aptamer binding type 1 (Lelystad) PRRSV M-S-S-GP5 complex (nucleic acid)
DNA: GGGCGACCCTGAAGAGGACCAGAAGCACGGACCACACACAGCGTATCGAAACGGTGAAAGCCGTAGGTTGCCC
modifications: DNA, backbone and methylation of C not given here
For B7, which “binding to the M-S-S-GP5 complex/heterodimer” value [6] is on record?
Its value is “binding capacity to the M-S-S-GP5 complex; also recorded: found to bind the M-S-S-GP5 heterodimer”.

And the “binding capabilities” value [7]?
Its value is “good binding capabilities”.

B8: A507: ssDNA aptamer binding type 2 PRRSV M-S-S-GP5 complex (nucleic acid)
DNA: GGGCGACCCTGAAGAGGTTTGCATATTATAGTTATAGGAGGTGTGTAATGGACGAAACGGTGAAAGCCGTAGGTTGCCC
modifications: DNA, backbone and methylation of C not given here
B8 was tested. Which “binding capabilities” value [3] did it give?
Its value is “highest binding capabilities”.

What about the “binding to the M-S-S-GP5 complex/heterodimer” value [5] of the same molecule?
The value was “binding capacity to the M-S-S-GP5 complex; also recorded: found to bind the M-S-S-GP5 heterodimer”.
